Tests used:
[1] = biological target: LRID Fab fused to the transmembrane portion of glycophorin A, on SP2/0 cells (Fab-GlycoA); test: cell-based or functional assay
[2] = biological target: LRID Fab fused to the GPI signal sequence from decay accelerating factor, on SP2/0 cells (Fab-GPI); test: cell-based or functional assay
Sequence of LRID Fab fused to the GPI signal sequence from decay accelerating factor, on SP2/0 cells (Fab-GPI) (VH, as listed by the source limits assumed, chain 1 of 2): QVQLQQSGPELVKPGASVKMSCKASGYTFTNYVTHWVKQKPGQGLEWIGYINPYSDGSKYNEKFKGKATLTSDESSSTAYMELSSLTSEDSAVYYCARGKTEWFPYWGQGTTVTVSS
Sequence of LRID Fab fused to the GPI signal sequence from decay accelerating factor, on SP2/0 cells (Fab-GPI) (VL, as listed by the source limits assumed, chain 2 of 2): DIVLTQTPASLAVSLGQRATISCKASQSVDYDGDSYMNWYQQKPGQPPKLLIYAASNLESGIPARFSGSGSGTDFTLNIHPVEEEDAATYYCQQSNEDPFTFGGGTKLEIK

Sequence of LRID Fab fused to the transmembrane portion of glycophorin A, on SP2/0 cells (Fab-GlycoA) (VH, as listed by the source limits assumed, chain 1 of 2): as the sequence (VH, as listed by the source limits assumed, chain 1 of 2) above
Sequence of LRID Fab fused to the transmembrane portion of glycophorin A, on SP2/0 cells (Fab-GlycoA) (VL, as listed by the source limits assumed, chain 2 of 2): as the sequence (VL, as listed by the source limits assumed, chain 2 of 2) above

B1: SM03 (antibody, V domains shown)
VH: QVQLQESGGGLVKPGGSLKLSCAASGFAFSIYDMSWVRQTPEKRLEWVAYISSGGGTTYYPDTVKGRFTISRDNAKNTLYLQMSSLKSEDTAMYYCARHSGYGSSYGVLFAYWGQGTLVTVSS
VL: DIQLTQTTSSLSASLGDRVTISCRASQDISNYLNWYQQKPDGTVKLLIYYTSILHSGVPSRFSGSGSGTDYSLTISNLEQEDFATYFCQQGNTLPWTFGGGTKLEIKR
modifications: here or on the partner: Held on the SP2/0 cell surface by the glycophorin A transmembrane portion; this part is not in the letters.
[1]
  CMC activities, maximum killing: > 90%
  CMC killing of surrogate target cells, EC50: 130 µg/mL
[2]
  CMC activities, maximum killing: > 90%
  CMC killing of surrogate target cells, EC50: 220 µg/mL
